Data reported in a protein production outcome set (Wang et al. 2014).

Assay: label from the status in PepcDB records

Sequence | protein production
MNIVVQSVYDNTQEFEIIKKWRENYIGINPANGNDFEYWESIREDCSYSFYFYYEDQLVGGVRLTPLGHGITMGERQLDLLRFISVPLETLEVNRLVIEERARGKKIMYESLQYCFHWDSRNTTHSELIALCLPHMVPLYRQVGATMIHDNLQSKEMPEKEYSLISINLKGL | failed
MEATKERMEKDQKKRVVTNEAGKAEDNTIRTIIRESIVEDRGSNDDDGNKDNDHGASKPEDILAFSRTVRKIDSSLE | failed
MKIKANGNEVQIEREMTIFEMLDALNVSMKEYVTVQLNGQIIPRSEYDKVTVKDGDEVEFLYFMGGGLL | failed
LEEVQLVVEPEGGAVAPGGTVTLTCEVPAQPSPQIHWMKDGVPLPLPPSPVLILPEIGPQDQGTYSCVATHSSHGPQESRAVSISIIEPGEEGPTAGSVGGSGLGTLALALGILGGLGTAALLIGVILWQRRQRRGEERKAPENQEEEEERAELNQSEEPEAGESSTGGP | not failed
MWITGASGGLGERIAYLCAAEGAHVLLSARREDRLIEIKRKITEEWSGQCEIFPLDVGRLEDIARVRDQIGSIDVLINNAGFGIFETVLDSTLDDMKAMFDVNVFGLIACTKAVLPQMLEQKKGHIINIASQAGKIATPKSSLYSATKHAVLGYSNALRMELSGTGIYVTTVNPGPIQTDFFSIADKGGDYAKNVGRWMLDPDDVAAQITAAIFTKKREINLPRLMNAGTKLYQLFPALVEKLAGR | failed
MAEKKWFDKVLSKWQYEPIQVFMRHLQSAEMDLSAIAVAYYLILTAFPLIVIAANIFPYLNIDIADLLRLMKQNLPKDIFRPASAIVENIFSKPSGSVLGVATLTGLWTMSRSLTSLQKAINKAYGASQHRDFFIGHLVGLLTSLIILFLLAFALIFSIFSKAAIQVLDKHYHLSDNITTIFLLLIQPITVLIIFVGLMLLYFLLPNVKIKKIRYILPGTLFTSFVMTFLSNLVGNYVVYNVERMVDIKMFGSVMIFIIMLWFIFLARILILGAIFNATYQEMSLGKLEGRSGDMIAILKKTLGNDSDLSPSQSIEDSHTD | failed
MSLERNYEESALFEHQFWLKVLTDHAQFLLDALAPKEKEDIKKATYFVETFTNLLNKVRNVNLMAFSKEAEQAAKEIRAFKLNIIQKQLEGKITIHFTPTFINHMVNEVEEYIAVLEFLKKGEVPPVFHELHYHLVWLTDAAGHAGSISGGLDLVEKRLKEKSEEFTKHFEQFYLKAVEMTGYLRTELHHFPALKKFTKDVSLELKLFSHFLHEVEELELSNEVLSVLSARMADHMAREECYYLLKLAQSSGLEMPKCNPLEGHHHHHH | not failed
MPNILYKIDNQYPYFTKNEKKIAQFILNYPHKVVNMTSQEIANQLETSSTSIIRLSKKVTPGGFNELKTRLSKFLPKEVTQYNVELVDNESTISLKNKLHSRSKAAL | not failed
MNSFAEKLMVGATAPSASVELPLGDRVRCVLVHEFLSASECEALIEATEQCGFASAGSDYPSSYRDNDRIVADDPAMAGRLFERLKHCASRMPKLGTVIDEDGWRPVGINERLRFCRYRPGTQFRAHQDGVHHRQRQQSRLTFMIYLNDDAFSGGETLFFEGRSAAMSNRDSTLRLRPRKGSLIVFDHTLWHAGALVDAGQKYVMRSDLMYEPQQSLQVDGPFQPGHRGYVWALADLGDRGFASAGRDATIRLWDHEGRCLGQLDGHTQSILGLVDVAPGELVSHSRDRTVRHWSLATGKSTLVGTSDSAVLSSARLGADRLVTGAADGCLTVWNLATGAADRRQAHACWVWAIAPTGDGSFASASEDGTVRLWQPEERDCVQVLDLGRPLRMLASWIDADGSVTLAVGDLDGAVHLLATEPRLALLDCLAAHDGPVRRVRFEARHMLLTCGEDGLVRRWNLPSRQGAIIGSHDNFATDVLPTRAGGWISCGYDGRILVHGDKG | failed
MNTMEEKYILSDRGKVYYWIKESNSVFAKNLIFLPGLTANHHLFDFQIQYFSKNHNVLVWDAPAHGKSRPYLDFSYSNLVEELKVILDKQNMKKVVLIGQSAGGFVAQSFIVKYPNMVEGLMMIGTCPYGTDYYSKSDIFWLKQTEWMLKLFPDKLLRNIISKMCGATSEGRRSMLKMLEGYEKKELCHLMYLGFAGFIPEIQDLNIHCPVCLVVGDKDKTGKVRKYNEQWHNKTGYPLHIIKNASHNVNVDKPNELNQIMDIFIKQLN | not failed
MKVTSVGAAMLLLIVGNLIAVLSDSLIKSVANEVPMFQFVFFRQISAVMFLLPVCLLAKQTNFMEGFKWHAVRAHVWLLGAVFMVMAISSLPLATANAIFYAAPLIMLPLAAIFFGEQLSKQSVAAAVMGFAGVLVIIRPDQIDWAAISAFVVALTLAINNLLIRKLPKNQSVMQTLLMTNLAGIPVALLLVLIEDQPWQWGAFPVAAGSSLFIMIYAATCVLAYRSIDSNKIASAEYSGLIGAVVVGFIWFGEIPDIFMAIGTVMIVVPLIWLSKRERRKQKEHAQLQAQKEHEQQQAHVA | failed
RPFMQKRAQKALPHVSTGADALVGRKVLVTETIDPTTDKGRVAVDGDVWTARSLTGEVIEKGMRVEIVSYESIVLNVVVLGNDKQ | not failed
MKTTALRLYGKRDLRLETFDLPEMQEDEILATVVTDSLCLSSWKEANLGENHKKVPDDVTTNPIIIGHEFCGDILAVGKKWQHKFQPGQRYVIQANLQLPDRPDCPGYSFPWVDGEATHVVIPNEVMEQYCLLAYDGETYFEGSLVEPLSCVIGAFNANYHLQEGSYNHTMGIRPQGHTLILGGTGPMGLLAIDYALHGPVNPSLLVITDTDNDKLSYARKHYPSEPQTLIHYLNATDAAFDTLMALSGGHGFDDIFVFVPNEGLVTLASSLLATDGCLNFFAGPQDKHFSAPINFYDVHYAFTHYVGTSGGNTDDMRAAVKLIEEKKVQAAKVVTHILGLNAAGETTLELPAVGGGKKLVYTGKYLPLTSLTQIQDQALAAILARHQGIWSGEVEQYLLAHAEAISHDLEHHHHHH | failed
MILTYHNMYYYQNESRDIAAALLIMTLAFFILLNGLGFYGLLSLIYLAIAFLVVVTAFLFHELAHRAVARRLGAVAFFKLWPIGAFLALITSLFHFLFAAPGAVEFAGVYDNESQGKIALAGPATNIIIGIITYILSIFSLGIVHYVLYYVGALNLWFALFNMIPIPPLDGSKVFYWKGSIFAGVFVFTIIMNIVDGFLLHII | failed
MFPILLLAFIFVPIIEIGLFIQVGGFLGLWPTIALVLITAFVGASLVRSQGIQTLMSVQGRLEQGEIPAQQIFEGVMLAVAGVLLLTPGFMTDALGMVVLLPAPRAAIAKYLMSKMVVKTMHGGGFQGGFSNQGPFEQDPFHRDPFDSRSDNGNTFEGEYERKDDDDRNKLN | failed
MSRELKLRIVSAIVMAAVILAATWYGGILFRIVAGLLAILIYYEWSTITRMSETNSTGNAWGWFAVAVIAGNTIFGESSLDLPLLSGFTLTAALFPVLRGKNWWLVGGIFYAGLSGISLAAIRGDELAGFASILFIFAVVWSTDILAYFVGRAIGGPKLAPSISPGKTWSGAVGGAVAAVIGGAAVSMAYHGRISLLLVGLALVLSVFSQIGDLFESFVKRRFQVKDSSHLIPGHGGFMDRVDGLVFACFTVFLIAFVHAAATGDVPGSGGGLLPGF | failed
MNNTGLSVKKVVAIGIGSAIYVILARFTSIPTPIPNTNIELVFPFLAFFASIYGATVGFSVGFIGHALSDFIMYGQTWWSWVLATGILGWIIGLAYKRLDLKNGIFGLKQIILFNIVQIIANILAWIVVAPIGDIIIYSEPANKVFVQGISATISNGISILIIGTILLKAYASTKIKKGSLRKED | failed
MQVFLQGLLFGIVYIAPIGMQNLFVVSTAIEQPLQRALRVALIVIAFDTSLSLACFYGVGRLLQTTPWLELGVLLIGSLLVFYIGWNLLRKKATAMGTLDADFSYKAAILTAFSVAWLNPQALIDGSVLLAAFRVSIPAALTHFFMLGVILASIIWFIGLTSLISKFKHLMQPRVLLWINRICGGIIILYGVQLLATFITKI | failed
MAKTGDPARAVTPPAIGTLDFALDRSSPVPLYYQLARQLEAAIEHGVLAPGNLLGNEVDLSVRLGLSRPTVRQAIQSLVDKGLLVRRRGVGTQVVHSQVRRPLELSSLYDDLEAAGQDPGTRVVRNEDVPATAEVAAALGVTEGTGVTVLERLRLTHGQPVAMLCNHLPAGLLELDDARLESTGLYRMMRARGITLHSARQTVGARIASREEAERLGEREGAALLTMRRIAYDDTGRPVEYGTHVYRASRYAFDFQLLVRN | not failed
MTQSLFDFSAYFKFFIGLFALVNPVGIIPVFISMTSYQPAAVRNKTNLTANLSVAIILLTSLFLGDGILQIFGISIDSFRIAGGILVVTIAMSMISGKLGEDKQNKQEKSETAVRESIGVVPLALPLMAGPGAISSTIVWGTRYHSWVHLVGFSLAIAVFALCCWGIFRMAPWLVRLLGQTGINVITRIMGLLLMALGIEFIVTGIKALFPGLLS | failed
MGEVFAGRYELVDPIGRGGVGAVWRAWDHRRRRYVAAKVLQQRDAHSLLRFVREQALRIDHPHVLAPASWAADDDQVLFTMDLVTGGSLVHLVGDYGPLPPEFVCTLLDQLLSGLAAVHGEGVVHRDIKPANLLLEATGTGRPRLRLSDFGIAMRLGEPRLTETNLVVGTPGYLAPEQMMGAEPDFPSDLFAVGLVALYLLEGAKPDAKVLVQHFAEHGTPPAPRGIPEPLWQVVATLLQPDPSARFRTATGARKALAAAVELLPEPGPDDELIEIFDQVGPLPTGFGPEGPFKRASGVDDVPTDPRRPAGTPPGVDPSPPATPPTPPPAPPWQGTPPAGPSSGLDRPSPGSPGPPPTGPDSTPASPPPGTPVTATGTPSAPGLPPASDQGWTPSTPSGPTAPPSAPSAPSAPSAPGPTRPAPHGTHSEEVPLAERPGAMSETGSFHLPPPQPTVTPTSDAAASDAAAEAAQPPAPHPAFTGGPRGLPPDRAPGRSQHPAPHGPPLTARSLAPSPARRADVPTAAYTARNPRSAPPAQHRGARRRRRPGPPARVALPVLLLALACYAVGFWALTRI | failed
MSKKPHSIKVPTQYRATAKILKAALEQQKCIKTLIFAEKHARTRSLHTVLKKFSENRVALEKAIEETGLLRDNPSFDPSLAKILVTELLFGRKELNGESKPVQTVRSYKDRLLNSIRDFGVQRKEPNPRYVRINTNLYSLAEALDYLHKSDWRRKELPADASYADFLTAIKSLAENEFMTDLHVEGVLIFPAKWSNYWVRHPLVHSKRFILQNKATCLAAELLAPPSGATVLDMCAAPGMKTVHICNVMQNKGCIYSVEQDHVRYNTLCEITKDAGCDIVKPILGDALNLTPERFPDVEYILVDPSCSGSGMQNRMTVCDEPKEDKRLQKLQGLQIKILSHAMGAFPNVKRIAYCTCSLWKEENEQVVQRCLQLNPSFKLLSCKKALRNKWHNVGDKDYPNIGKNVLYCQPDSDLTDGIFLALFEKRREGEKD | failed
MNFLPPTPPPPDPVGWKLPRGSLARHLVLRLMPPLLLLVLLDLAATWVITHKIDMSIWMLEDFFWLMVVGQIVLIALFTGVIIRGVRSGLRSVNHLAEEIRQRSIDDMQPMEVAGLPAEIAPLVTHINDLLGRLDASLAAQRRFIGHAAHQLRTPLSGLRLESELMLARPLPEDVRMRAERIKAVSDRMIRLGQQLLVMARADPDARPQDRFIRLDLCEWVRASGAEWIPRVRAAQAEIDLVAPEQPVWIDGDPLLLDEMLGNLIDNALRYGKPRGRICLTIDVNPPALIIEDDGPGISPQERDSVFEAFYRAPDAKAGGSGLGLAIVREIAHAHGAWWKLSSRPEYAGTRLSVVFPGPRIGTQLTRQERAS | failed
